The results in this text go back to patent publication US20170267737A1 (published 2017).

This assay concerns the target T1, glypican-3 (GPC3) peptide on HLA-A*02:01 (human).
T1 peptide: FIDKKVLKV
Nature of the assay: multimer staining.

B1: TCR P1-1 (TCR, V domains shown)
Valpha: AQSVTQPDIHITVSEGASLELRCNYSYGATPYLFWYVQSPGQGLQLLLKYFSGDTLVQGIKGFEAEFKRSQSSFNLRKPSVHWSDAAEYFCAVGVLNFGNEKLTFGTGTRLTIIP
Vbeta: SQTIHQWPATLVQPVGSPLSLECTVEGTSNPNLYWYRQAAGRGLQLLFYSVGIGQISSEVPQNLSASRPQDRQFILSSKKLLLSDSGFYLCAWSEDTAYYGYTFGSGTRLTVV
For the molecule B1, the binding result is “recognises”.
